Results published in the Immune Epitope Database (IEDB).

Experiments:
HLA-A*01:01 = test: IEDB peptide-MHC binding, purified MHC/direct/fluorescence; filed as Kd, often an IC50 or EC50 that approximates it; ≥ and ≤ were set here for values at or beyond the usual limits of such assays; details: source organism: Mycobacterium tuberculosis
HLA-A*02:01 = test: as above; details: source organism: Mycobacterium tuberculosis
HLA-A*03:01 = test: as above; details: source organism: Mycobacterium tuberculosis
HLA-A*11:01 = test: as above; details: source organism: Mycobacterium tuberculosis
HLA-A*31:01 = test: as above; details: source organism: Mycobacterium tuberculosis
HLA-A*69:01 = test: as above; details: source organism: Mycobacterium tuberculosis
HLA-B*15:01 = test: as above; details: source organism: Mycobacterium tuberculosis
HLA-B*15:17 = test: as above; details: source organism: Mycobacterium tuberculosis
HLA-B*18:01 = test: as above; details: source organism: Mycobacterium tuberculosis
HLA-B*27:05 = test: as above; details: source organism: Mycobacterium tuberculosis
HLA-B*38:01 = test: as above; details: source organism: Mycobacterium tuberculosis str. Haarlem
HLA-B*40:01 = test: as above; details: source organism: Mycobacterium tuberculosis
HLA-B*46:01 = test: as above; details: source organism: Mycobacterium tuberculosis
HLA-B*48:01 = test: as above; details: source organism: Mycobacterium tuberculosis
HLA-B*51:01 = test: as above; details: source organism: Mycobacterium tuberculosis
HLA-B*57:01 = test: as above; details: source organism: Mycobacterium tuberculosis
HLA-B*58:01 = test: as above; details: source organism: Mycobacterium tuberculosis
HLA-B*08:01 = test: IEDB peptide-MHC binding, purified MHC/competitive/fluorescence; filed as Kd, often an IC50 or EC50 that approximates it; ≥ and ≤ were set here for values at or beyond the usual limits of such assays; details: source organism: Mycobacterium tuberculosis variant bovis BCG str. Pasteur 1173P2
HLA-B*39:01 = test: as above; details: source organism: Mycobacterium tuberculosis variant bovis BCG str. Pasteur 1173P2

Measured: Kd

RPPMVTSGL
≥ 20 µM: all assays above
